Format in all cases: in vivo
The test system of one experiment is ApoE-KO mice. Nature of the experiment: Aortic sinus lesion area after oral administration in ApoE-KO mice. The following applies: End t = 16 wks; oral 50 μg/mouse; ApoE-KO mice; mean ± S.E. The source says: (§1) Assessment of Atherosclerosis: Quantification of atherosclerotic fatty streak lesions was done by calculating the lesion size in the aortic sinus as previously described (16) and by calculating the lesion size in the aorta. Briefly, after perfusion with saline Tris EDTA, the heart and the aorta were removed from the animals and the peripheral fat cleaned carefully. The upper section of the heart was embedded in OCT medium (10.24% w/w polyvinyl alcohol; 4.26% w/w polyethylene glycol; 85.50% w/w nonreactive ingredients) and frozen. Every other section (10 μm thick) throughout the aortic sinus (400 μm) was taken for analysis. The distal portion of the aortic sinus was recognized by the three valve cusps that are the junctions of the aorta to the heart. […] Lesion areas per section were scored on a grid (17) by an observer counting unidentified, numbered specimens. The aorta was dissected from the heart and surrounding adventitious tissue was removed. Fixation of the aorta and Sudan staining of the vessels were performed as previously described (21).
In order to determine the protective effect of mucosal administration of β2GPI on development of atherosclerosis, adult ApoE-KO mice were treated with oral administration of human β2GPI. 20 week-old male ApoE-KO mice, having advanced atherosclerotic lesions were treated monthly with human β2GPI (50 μg/dose) or PBS (0.2 ml) in 5 oral administrations (by gavage, as described hereinabove) given every other day, for four months. Lesion area calculated from cryosections of the aortic sinus were compared between control untreated 20 week old mice, and mice following 16 weeks oral administration of β2GPI or PBS.
10-11 week-old male ApoE-KO mice, having early atherosclerotic lesions, were treated with 5 oral administrations (by gavage, as described hereinabove) given every other day of human β2GPI peptide S-4 (SEQ ID NO: 14) or human β2GPI (50 μg/dose) or PBS (0.2 ml). Lesion areas calculated from cryosections of the aortic sinus were compared between control untreated, human β2GPI treated and S-4 human β2GPI-derived peptide treated mice at 8 weeks following the last oral administration of the antigens, or of PBS.

In experiment [1] the test system is LDL-RD mice. Nature of the experiment: Aortic sinus lesion area after oral administration, Western diet. The following applies: for Aortic sinus lesion (μm^2): End, mean ± S.E. On the procedure:
Oral Tolerance: For comparison, oral tolerance to plaque-associated molecules was induced by feeding […] of antigen every other day (for a detailed account of induction of oral tolerance, see U.S. patent application Ser. No. 09/806,400 to Shoenfeld et al filed Sep. 30, 1999), in a similar regimen to the nasal tolerance. LDL-RD mice were fed by a nasogastric tube, five doses (every other day) of human or bovine β2GPI in PBS in two different concentrations (500 and 50 μg/dose).
Oral tolerance to β2GPI-derived peptides, alone or in combination was induced by feeding 100 μg of the peptides (prepared in PBS, 0.2 ml), as detailed hereinabove, every other day for a total of 5 doses of 100 μg. One day following the last feeding, all mice were switched from chow-diet to an atherogenic “Western” diet and sacrificed five weeks later.
as §1
LDL-receptor deficient (LDL-RD; LDLR −/−) mice created on a C57BL/6 background develop accelerated atherosclerosis when fed a high cholesterol diet, but not when fed a regular chow diet. In order to determine whether mucosal administration of the plaque antigen β2GPI could suppress atherogenic processes, LDL-RD mice were fed low, oral tolerance inducing doses of human and bovine β2GPI, and the assessed for alterations in response to diet.

For experiment [2], the system named is LDL-RD mice. Nature of the experiment: Aortic sinus lesion area after nasal tolerance induction, Western diet. The conditions noted are these: End, mean ± S.E.
Description: Nasal Tolerance: Nasal tolerance was induced by intranasal administration of oxidized LDL, β2GPI, β2GPI-derived peptides or HSP65, in a total volume of 10 μl PBS. Intranasal administration was performed on mildly sedated mice (12-16 weeks old), each mouse receiving 3 doses of antigen per dose, in the indicated concentrations, every other day. Atherogenesis was induced by 5 weeks of a Western diet initiated on the day following the last intranasal administration, or assessed (in Apo E KO mice) after 8 weeks on a chow diet. Controls received equal amounts of BSA and/or PBS, as indicated, in an identical regimen. Plasma was obtained for assessment of cholesterol and triglyceride levels from all mice, and the mice were sacrificed for evaluation of atherosclerosis, as described hereinbelow, after 5 weeks Western diet, or (in Apo E KO mice) after 8 weeks on a chow diet.
Assessment of Atherosclerosis: Quantification of atherosclerotic fatty streak lesions was done by calculating the lesion size in the aortic sinus as previously described (16) and by calculating the lesion size in the aorta. Briefly, after perfusion with saline Tris EDTA, the heart and the aorta were removed from the animals and the peripheral fat cleaned carefully. The upper section of the heart was embedded in OCT medium (10.24% w/w polyvinyl alcohol; 4.26% w/w polyethylene glycol; 85.50% w/w nonreactive ingredients) and frozen. Every other section (10 μm thick) throughout the aortic sinus (400 μm) was taken for analysis. The distal portion of the aortic sinus was recognized by the three valve cusps that are the junctions of the aorta to the heart. Sections were evaluated for fatty streak lesions after processing and staining with oil-red O, according to Paigen et al (Atherosclerosis, 1987; 68:231-40). Lesion areas per section were scored on a grid (17) by an observer counting unidentified, numbered specimens. The aorta was dissected from the heart and surrounding adventitious tissue was removed. Fixation of the aorta and Sudan staining of the vessels were performed as previously described (21).
Mice were bled prior to feeding (Time 0) and at the conclusion of the experiment (End) for determination of lipid profile. Atherosclerosis was assessed in heart and aorta as described above, 8 weeks after the last feeding. Mice were weighed every 2 weeks during the experiment. All mice were fed water ad libitum and a normal chow-diet containing 4.5% fat by weight (0.02% cholesterol), up to the final antigen exposure, and then a “Western” diet until sacrifice.
Thus, nasal exposure to a low dose and an exceedingly low dose of recombinant human HSP 65 were compared for their effectiveness in suppressing atherogenesis in LDL-RD mice. 58 male 12-16 week old LDL-RD mice were divided into 4 groups.

B1: B-β2GPI: head of Table 5; text and footnote say human β2GPI, 50 μg/mouse orally (protein, UniProt P02749 20-345, looked up)
Beta-2-glycoprotein 1: GRTCPKPDDLPFSTVVPLKTFYEPGEEITYSCKPGYVSRGGMRKFICPLTGLWPINTLKCTPRVCPFAGILENGAVRYTTFEYPNTISFSCNTGFYLNGADSAKCTEEGKWSPELPVCAPIICPPPSIPTFATLRVYKPSAGNNSLYRDTAVFECLPQHAMFGNDTITCTTHGNWTKLPECREVKCPFPSRPDNGFVNYPAKPTLYYKDKATFGCHDGYSLDGPEEIECTKLGNWSAMPSCKASCKVPVKKATVVYQGERVKIQEKFKNGMLHGDKVSFFCKNKEKKCSYTEDAQCIDGTIEVPKCFKEHSSLAFWKTDASDVKPC
With B1, in the experiment on ApoE-KO mice, the “Aortic sinus lesion (μm^2)” value is listed as 221042 ± 14472 μm^2.

B2: B-β2 GPI: bovine beta2-glycoprotein I purified from serum (protein, UniProt P17690 20-345, looked up)
Beta-2-glycoprotein 1: GRTCPKPDELPFSTVVPLKRTYEPGEQIVFSCQPGYVSRGGIRRFTCPLTGLWPINTLKCMPRVCPFAGILENGTVRYTTFEYPNTISFSCHTGFYLKGASSAKCTEEGKWSPDLPVCAPITCPPPPIPKFASLSVYKPLAGNNSFYGSKAVFKCLPHHAMFGNDTVTCTEHGNWTQLPECREVRCPFPSRPDNGFVNHPANPVLYYKDTATFGCHETYSLDGPEEVECSKFGNWSAQPSCKASCKLSIKRATVIYEGERVAIQNKFKNGMLHGQKVSFFCKHKEKKCSYTEDAQCIDGTIEIPKCFKEHSSLAFWKTDASDVKPC
As to B2, the “Aortic sinus lesion (μm^2)” value in the experiment with LDL-RD mice [1] (oral 50 μg) was 27422 ± 3007 μm^2; in the experiment with LDL-RD mice [1] (oral 500 μg), 20781 ± 2290 μm^2. Besides, the “reduction of atherosclerosis as compared with BSA-fed controls” value in the experiment with LDL-RD mice [1] (oral 50 μg/dose) stood at 57%; in the experiment with LDL-RD mice [1] (oral 500 μg/dose), 43%.

B3: HSP65: recombinant human HSP 65 according to Example 2 and Table 2 (protein, UniProt P10809 27-573, looked up)
60 kDa heat shock protein, …: AKDVKFGADARALMLQGVDLLADAVAVTMGPKGRTVIIEQSWGSPKVTKDGVTVAKSIDLKDKYKNIGAKLVQDVANNTNEEAGDGTTTATVLARSIAKEGFEKISKGANPVEIRRGVMLAVDAVIAELKKQSKPVTTPEEIAQVATISANGDKEIGNIISDAMKKVGRKGVITVKDGKTLNDELEIIEGMKFDRGYISPYFINTSKGQKCEFQDAYVLLSEKKISSIQSIVPALEIANAHRKPLVIIAEDVDGEALSTLVLNRLKVGLQVVAVKAPGFGDNRKNQLKDMAIATGGAVFGEEGLTLNLEDVQPHDLGKVGEVIVTKDDAMLLKGKGDKAQIEKRIQEIIEQLDVTTSEYEKEKLNERLAKLSDGVAVLKVGGTSDVEVNEKKDRVTDALNATRAAVEEGIVLGGGCALLRCIPALDSLTPANEDQKIGIEIIKRTLKIPAMTIAKNAGVEGSLIVEKIMQSSSEVGYDAMAGDFVNMVEKGIIDPTKVVRTALLDAAGVASLLTTAEVVVTEIPKEEKDPGMGAMGGMGGGMGGGMF
For the molecule B3, the entries for the “Aortic sinus lesion (μm^2)” value in the experiment with LDL-RD mice [2] (intranasal 1 μg/mouse) and in the experiment on LDL-RD mice [2] (intranasal 10 μg/mouse) were 17109 ± 2053 μm^2 and 22292 ± 2691 μm^2, respectively.

The values above are taken from patent publication US20090068207A1, “Compositions Containing Beta 2-Glycoprotein I-Derived Peptides for the Prevention and/or Treatment of Vascular Disease” (Vascular Biogenics Ltd., priority 2005, published 2009).
